Source: patent publication US6518061

How the values were obtained:
[1] = biological target: IL-13 receptor (IL-13R) on human tumor cells (human); assay: cell-based or functional assay
[2] = biological target: IL-13 receptor (IL-13R) on human tumor cells (human); assay: displacement of [^125I]-IL-13 from HL-RCC cells
[3] = biological target: IL-13 receptor (IL-13R) on human tumor cells (human); assay: radioligand (0.64 nM) binding to PM-RCC cells, 4 C, 2 h
[4] = biological target: IL-13 receptor (IL-13R) on human tumor cells (human); assay: displacement of ^125I-IL-13 from WS-RCC and HL-RCC cells by excess unlabeled IL-13
[5] = biological target: IL-13 receptor (IL-13R) on human tumor cells (human); assay: ^125I-IL-13 displacement by unlabeled IL-13 on HL-RCC cells, LIGAND/Scatchard analysis
[6] = biological target: IL-13 receptor (IL-13R) on human tumor cells (human); assay: ^125I-IL-13 displacement by unlabeled IL-13 on MA-RCC cells, LIGAND/Scatchard analysis
[7] = biological target: IL-13 receptor (IL-13R) on human tumor cells (human); assay: ^125I-IL-13 displacement by unlabeled IL-13 on PM-RCC cells, LIGAND/Scatchard analysis
[8] = biological target: IL-13 receptor (IL-13R) on human tumor cells (human); assay: ^125I-IL-13 displacement by unlabeled IL-13 on WS-RCC cells, LIGAND/Scatchard analysis
[9] = biological target: IL-13 receptor (IL-13R) on human tumor cells (human); assay: ^125I-hIL-13 displacement by unlabeled hIL-13 on A-172 glioma cells, LIGAND/Scatchard analysis
[10] = biological target: IL-13 receptor (IL-13R) on human tumor cells (human); assay: ^125I-hIL-13 displacement by unlabeled hIL-13 on T-98G glioma cells, LIGAND/Scatchard analysis
[11] = biological target: IL-13 receptor (IL-13R) on human tumor cells (human); assay: ^125I-hIL-13 displacement by unlabeled hIL-13 on SNB-19 glioma cells, LIGAND/Scatchard analysis
[12] = biological target: IL-13 receptor (IL-13R) on human tumor cells (human); assay: ^125I-hIL-13 displacement by unlabeled hIL-13 on U-251 MG glioma cells, LIGAND/Scatchard analysis
[13] = biological target: IL-13 receptor (IL-13R) on human tumor cells (human); assay: ^125I-hIL-13 displacement by unlabeled hIL-13 on U-373 MG glioma cells, LIGAND/Scatchard analysis

IL-13 receptor (IL-13R) on human tumor cells (human), sequence (Q14627 whole entry): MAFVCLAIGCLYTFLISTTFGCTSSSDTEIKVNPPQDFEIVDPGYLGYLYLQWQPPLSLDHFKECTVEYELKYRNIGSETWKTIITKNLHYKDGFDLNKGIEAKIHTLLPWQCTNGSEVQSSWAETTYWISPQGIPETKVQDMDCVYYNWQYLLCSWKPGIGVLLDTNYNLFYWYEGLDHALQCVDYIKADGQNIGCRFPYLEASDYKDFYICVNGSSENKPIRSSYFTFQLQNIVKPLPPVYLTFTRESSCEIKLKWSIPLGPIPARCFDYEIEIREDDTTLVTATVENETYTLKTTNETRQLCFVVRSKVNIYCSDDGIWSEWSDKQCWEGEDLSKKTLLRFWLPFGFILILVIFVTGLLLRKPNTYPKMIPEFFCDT

| Substance | IC50, cytotoxicity on several glioma cell lines [1] [ng/mL] | IC50 [2] [nM] | cpm specifically bound [3] [cpm] | % displacement of total binding [4] [%] | Kd [5] [nM] | Kd [6] [nM] | Kd [7] [nM] | Kd [8] [nM] | Kd [9] [nM] | Kd [10] [nM] | Kd [11] [nM] | Kd [12] [nM] | Kd [13] [nM] |
| --- | --- | --- | --- | --- | --- | --- | --- | --- | --- | --- | --- | --- | --- |
| hIL-13-PE4E (from UniProt P35225 33-146; P11439 26-638) | < 0.1 | – | – | – | – | – | – | – | – | – | – | – | – |
| recombinant human interleukin 13 (IL-13) (from UniProt P35225 33-146) (ligand) | – | 20 | 182000 | 85 | 3.1 | 0.128 | 0.394 | 0.247 | 1.6 | 1 | 1.4 | 2.1 | 1.8 |
